From patent US20240084003A1 (SIMCERE ZAIMING PHARMACEUTICAL, published 2024)
One block for each binder: values may come before it.

Assays:
[1] = molecular target: T1, CD22 on cynomolgus monkey peripheral blood B cells (cynomolgus monkey (Macaca fascicularis)); assay: FACS, cynomolgus PBMC, CD20+ B cells, antibody 10 nM
T1 construct: whole, on cells; also called cynomolgus monkey B cells
Description: (§1) The monkey peripheral blood mononuclear cells were extracted from fresh cynomolgus monkey peripheral blood (purchased from Shanghai Medicilon Inc.) according to the instructions of Ficoll-Paque Plus (purchased from GE Healthcare, catalog number: 171440-02). After the cell suspension was centrifuged, the cells were resuspended in PBS containing 1% BSA, and then the cells were counted. At the same time, the murine antibody Brilliant Violet 605 anti-human CD20 (catalog number: 302334, purchased from Biolegend) with monkey CD20 cross-binding activity and the chimeric antibodies to be tested (1 nM, 10 nM and 100 nM) were added and incubated at room temperature for 1 hour. After washing the cells three times, APC-labeled secondary antibody anti-human IgG Fc (catalog number: 409306, purchased from Biolegend) was added. After incubation at room temperature in the dark for 30 minutes, the cells were washed 5 times, gently resuspended with PBS containing 1% BSA, and detected and analyzed by FACS (FACS Canto™, purchased from BD Company). Wherein CD20 was used as a marker of B cells, and the CD20-positive B cell population was gated, the proportion of chimeric antibody positive cells was analyzed, and the proportion of chimeric antibody positive cell population to B cell population was calculated after treatments with the chimeric antibodies at the concentrations of 100 nM, 10 nM and 1 nM, respectively. The scatter plot of double-stained cells by Brilliant Violet 605-labeled CD20 and APC secondary antibody indirectly labeled chimeric antibody is shown in FIG. 10A-FIG. 10B (under the condition of 1 nM of chimeric antibody concentration).

[2] = molecular target: T1, CD22 on cynomolgus monkey peripheral …; assay: FACS, cynomolgus PBMC, CD20+ B cells, antibody 100 nM
Description: as §1

[3] = molecular target: T1, CD22 on cynomolgus monkey peripheral …; assay: FACS, cynomolgus PBMC, CD20+ B cells, antibody 1 nM
Description: as §1

[4] = molecular target: T2, murine CD22 protein (ACROBiosystems, SI2-M52Ha) (murine, UniProt P35329 22-708); assay: ELISA, coated murine CD22, 0.0001 nM Ab
T2 construct: extracellular domain; also called murine CD22-ECD; murine CD22-ECD-His
T2 sequence (looked up): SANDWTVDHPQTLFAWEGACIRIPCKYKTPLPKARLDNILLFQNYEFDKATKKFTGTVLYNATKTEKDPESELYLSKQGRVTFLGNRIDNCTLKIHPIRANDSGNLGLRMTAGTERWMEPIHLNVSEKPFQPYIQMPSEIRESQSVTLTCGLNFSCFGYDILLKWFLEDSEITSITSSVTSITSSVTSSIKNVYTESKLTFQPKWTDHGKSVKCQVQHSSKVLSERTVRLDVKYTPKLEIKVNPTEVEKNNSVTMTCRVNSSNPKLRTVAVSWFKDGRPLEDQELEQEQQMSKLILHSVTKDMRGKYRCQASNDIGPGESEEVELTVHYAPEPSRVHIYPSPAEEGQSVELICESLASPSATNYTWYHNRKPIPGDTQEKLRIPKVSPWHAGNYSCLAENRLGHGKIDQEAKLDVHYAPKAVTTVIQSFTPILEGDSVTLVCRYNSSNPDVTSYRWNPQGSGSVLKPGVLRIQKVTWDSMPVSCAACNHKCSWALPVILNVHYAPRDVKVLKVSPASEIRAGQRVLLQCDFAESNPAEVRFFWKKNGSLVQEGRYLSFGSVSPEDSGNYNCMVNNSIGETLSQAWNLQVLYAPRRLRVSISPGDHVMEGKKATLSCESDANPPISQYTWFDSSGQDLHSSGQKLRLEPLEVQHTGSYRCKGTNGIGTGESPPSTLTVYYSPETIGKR
How it was run: (§2)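 Direct ELISA: chimeric antibody binding to CD22 coated at 2 μg/mL, with a 37° C, 2 h antibody step and HRP/TMB detection.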

[5] = molecular target: T3, human CD22, full length, on CHO-K1-human CD22 2C4 cells (human, UniProt P20273 20-847); assay: FACS, CHO-K1-human CD22 2C4 cells
T3 construct: Full-length human CD22 (NCBI NP_001762.2) stably transfected into CHO-K1
T3 sequence: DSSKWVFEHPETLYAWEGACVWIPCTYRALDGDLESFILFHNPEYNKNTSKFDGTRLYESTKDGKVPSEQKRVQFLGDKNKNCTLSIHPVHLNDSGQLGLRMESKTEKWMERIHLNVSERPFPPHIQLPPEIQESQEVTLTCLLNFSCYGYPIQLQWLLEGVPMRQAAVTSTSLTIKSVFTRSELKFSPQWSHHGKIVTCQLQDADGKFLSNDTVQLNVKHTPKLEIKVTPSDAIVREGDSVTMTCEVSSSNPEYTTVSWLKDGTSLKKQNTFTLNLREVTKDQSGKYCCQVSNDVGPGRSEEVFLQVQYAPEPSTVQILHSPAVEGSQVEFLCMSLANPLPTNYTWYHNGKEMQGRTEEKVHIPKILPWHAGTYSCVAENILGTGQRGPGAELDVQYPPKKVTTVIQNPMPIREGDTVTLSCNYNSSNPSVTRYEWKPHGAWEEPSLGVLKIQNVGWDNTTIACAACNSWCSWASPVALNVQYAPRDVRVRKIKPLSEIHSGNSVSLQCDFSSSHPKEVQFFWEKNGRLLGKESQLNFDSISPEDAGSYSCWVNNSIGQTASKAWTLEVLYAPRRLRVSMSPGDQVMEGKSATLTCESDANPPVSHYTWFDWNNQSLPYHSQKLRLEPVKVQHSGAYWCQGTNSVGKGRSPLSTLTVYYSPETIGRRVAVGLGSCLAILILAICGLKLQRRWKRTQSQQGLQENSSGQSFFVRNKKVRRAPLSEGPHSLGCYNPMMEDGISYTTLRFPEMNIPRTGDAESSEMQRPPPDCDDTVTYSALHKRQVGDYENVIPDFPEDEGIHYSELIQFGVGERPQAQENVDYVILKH
How it was run: (§3)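 Raji cells and CHO-K1 cells expressing human CD22 were blocked in PBS + 2% BSA at 2×10⁶ cells/ml and incubated with chimeric antibody for 2 h on ice. Bound antibody was detected with an Alexa Fluor 488 secondary for 1 h on ice and read by flow cytometry as MFI. EC50 came from curve fitting.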

[6] = molecular target: T2, murine CD22 protein (ACROBiosystems, …); assay: ELISA, coated murine CD22, 100 nM Ab
How it was run: as §2

[7] = molecular target: T4, human CD22, endogenous on Raji cells (human, UniProt P20273 20-847); assay: FACS, Raji cells
T4 construct: whole, on cells; Endogenous protein of the Raji cell line
T4 sequence (looked up): T3 sequence
How it was run: as §3

[8] = molecular target: T2, murine CD22 protein (ACROBiosystems, …); assay: ELISA, coated murine CD22, 0.01 nM Ab
How it was run: as §2

[9] = molecular target: T2, murine CD22 protein (ACROBiosystems, …); assay: ELISA, coated murine CD22, 10 nM Ab
How it was run: as §2

[10] = molecular target: T2, murine CD22 protein (ACROBiosystems, …); assay: ELISA, coated murine CD22, 0.00001 nM Ab
How it was run: as §2

[11] = molecular target: T2, murine CD22 protein (ACROBiosystems, …); assay: ELISA, coated murine CD22, 0.1 nM Ab
How it was run: as §2

[12] = molecular target: T2, murine CD22 protein (ACROBiosystems, …); assay: ELISA, coated murine CD22, 0.001 nM Ab
How it was run: as §2

Proportion of chimeric antibody positive cells to B cells (%) [1]: 21%
Proportion of chimeric antibody positive cells to B cells (%) [2]: 29%
Proportion of chimeric antibody positive cells to B cells (%) [3]: 16%
B1: F1.161.7 (antibody, human IgG1, kappa, V domains shown)
VH: QVQLQQPGAELVKPGASVKMSCKASGYTFTSYWISWVKQRPGQGLEWIGDIYPGTGSSNYNEKFKSKATLTVDTSSSTAYMQLSSLTSEDSAVYYCARLKFEGIGYWGQGTTLTVSS
VL: QIVLTQSPAIMSASLGEEITLTCSASSSVSYMHWFQQKSGTSPKLLIYSISNLASGVPSRFSGSGSGTFYSLTISSVEAEDAADYYCHQWSSYPWTFGGGTKLEIKR
notes: human-murine chimeric IgG1 kappa

Proportion of chimeric antibody positive cells to B cells (%) [1]: 21%
Proportion of chimeric antibody positive cells to B cells (%) [2]: 22%
Proportion of chimeric antibody positive cells to B cells (%) [3]: 20%
B2: F2.127.11 (antibody, human IgG1, lambda, V domains shown)
VH: QVTLKESGPGILQPSQTLSLTCSFSGFSLSTFGMGVGWIRQPSGKGLEWLAHIWWDDDKHYNPALKSRLTISKDTSRNQVFLKIANVDTADGATYFCARDNWVSSLDYWGQGTSVIVSS
VL: QPVITQSSSASFSLGASAELTCTLSSQHSTYTIEWYQQQPLKPPKYVMGLKKDGSHSTGDGIPDRFSGSSSGADRYLSISNIQPEDEAIYICGVSDTIKEQFVYVFGGGTKVTVLG
notes: human-murine chimeric IgG1 lambda; VL name legible

OD450 [4]: 0.06 OD450
EC50 [5]: 1.31 nM
Maximum mean fluorescence intensity [5]: 29200 MFI
OD450 [6]: 0.08 OD450
EC50 [7]: 1.1 nM
Maximum mean fluorescence intensity [7]: 25600 MFI
OD450 [8]: 0.05 OD450
OD450 [9]: 0.06 OD450
OD450 [10]: 0.07 OD450
OD450 [11]: 0.05 OD450
OD450 [12]: 0.05 OD450
B3: F1.62.10 human-murine chimeric antibody (antibody, human IgG1, kappa, V domains shown)
VH: QVQLQQSGPELVKPGASVKISCKASGYEFSSIWMNWVKQRPGEGLEWIGRIFPGDGEINYNEKFKGKATLTADRSSTTAYMQLSSLTSEDSAVYFCAGWRIYYGTYGAMDYWGQGTSVTVSS
VL: DIQMTQITSSLSASLGDRVTISCRASQDIGNYLNWYQQKPDGTVKLLIYYTSRLHSGVPSRFSGSGSRTDYSLTISNLQQEDIATYFCQQGNTLPWTFGGGTKLEIKR
notes: Chimeric, human IgG1 / kappa
